First the molecules themselves.
T1: ITGA6-Fc
T1 construct: Fc fusion
T1 sequence (P23229 whole entry, species assumed, looked up): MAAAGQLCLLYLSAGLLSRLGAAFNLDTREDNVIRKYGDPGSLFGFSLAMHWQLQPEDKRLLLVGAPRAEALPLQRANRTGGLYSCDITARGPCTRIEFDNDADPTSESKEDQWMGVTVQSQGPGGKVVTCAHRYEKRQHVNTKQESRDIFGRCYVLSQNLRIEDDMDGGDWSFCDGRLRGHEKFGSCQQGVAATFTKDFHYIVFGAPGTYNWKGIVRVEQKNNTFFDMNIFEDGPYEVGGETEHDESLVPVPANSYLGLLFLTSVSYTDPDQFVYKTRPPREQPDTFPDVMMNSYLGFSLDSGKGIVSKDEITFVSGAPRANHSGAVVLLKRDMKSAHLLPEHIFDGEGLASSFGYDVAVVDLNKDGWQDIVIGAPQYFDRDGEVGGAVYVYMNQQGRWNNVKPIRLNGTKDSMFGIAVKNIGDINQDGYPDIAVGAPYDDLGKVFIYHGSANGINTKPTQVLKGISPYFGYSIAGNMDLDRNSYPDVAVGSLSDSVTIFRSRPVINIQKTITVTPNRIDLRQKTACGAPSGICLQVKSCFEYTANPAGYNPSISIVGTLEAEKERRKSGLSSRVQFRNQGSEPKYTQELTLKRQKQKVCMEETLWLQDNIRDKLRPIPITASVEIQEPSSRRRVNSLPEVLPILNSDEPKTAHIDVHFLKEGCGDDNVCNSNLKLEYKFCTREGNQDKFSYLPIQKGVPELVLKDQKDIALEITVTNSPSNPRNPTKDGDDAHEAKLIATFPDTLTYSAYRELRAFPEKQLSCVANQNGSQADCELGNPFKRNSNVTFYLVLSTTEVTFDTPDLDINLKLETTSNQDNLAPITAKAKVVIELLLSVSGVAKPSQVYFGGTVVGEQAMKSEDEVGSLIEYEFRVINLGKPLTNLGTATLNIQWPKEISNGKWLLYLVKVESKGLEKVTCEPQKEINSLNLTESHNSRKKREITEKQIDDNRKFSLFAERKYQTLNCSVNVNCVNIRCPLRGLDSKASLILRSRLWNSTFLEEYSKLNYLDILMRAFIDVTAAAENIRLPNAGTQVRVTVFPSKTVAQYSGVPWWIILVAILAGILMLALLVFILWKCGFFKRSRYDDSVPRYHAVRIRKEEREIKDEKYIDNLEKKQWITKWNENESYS

B1: PD1-44B5 (antibody, V domains shown)
VH: QVQLVESGGGVVQPGRSLRLSCAASGFTFSSYAMHWVRQAPGKGLEWVAVISYDGSNKYYADSVKGRFTISRDNSKNTLYLQMNSLRAEDTAVYYCARLMHTFSVQYFLDVWGQGTTVTVSS
VL: QFVLTQSPSASGTPGQNIVISCSASTFNIGTTTVNWYQRLPGTAPKLLIYNYDQRPSGVPDRFSGSKSGTSASLAISGLQSEDEADYYCAAWDDSLNAWLFGGGTKLTVL
notes: scFv-phage in the screening ELISA; later whole IgG
B2: PD1-31F3 (antibody, V domains shown)
VH: QVQLVQSGAEVKKPGSSVKVSCKASGGTFSSYAISWVRQAPGQGLEWMGGIIPLFSTAHSAQKFQGRVTITADESSSTAYMELSSLRSEDTAVYYCAKHKGLPFDWSPDGFDTWGQGTMVTVSS
VL: QFVLTQPPSVSGAPGQRVIISCTGSSSNIGAGYDVHWYQQLPGTAPKVLIYGNSDRPSGVPDRFSASKSATSASLAITGLQAEDEADYYCQSYDSSLSGYVFGTGTKVTVL
notes: as for B1
B3: PD1-42G4 (antibody, V domains shown)
VH: QVQLVESGGGLVKPGGSLRLSCAASGFTFSDYYMSWIRQAPGKGLEWVSDISASGNSIYYADSVKRRFTISRDNSKNSLYLQMNSLRAEDTAVYYCVTSGPFGEFRNWGLGTLVTVSS
VL: DIQMTQSPSSLSASVGDRVTTTCRASQGISSYLAWYQQKPGKAPKLLIYAASTLQSGVPSRFSGSGSGTDFTLTISSLQPEDFATYFCQQSYTSPRTFGQGTKLDIK
notes: as for B1
B4: PD1-32A6 (antibody, V domains shown)
VH: QVQLVQSGAEVKKPGSSVKVSCKASGDTFTRNAVSWVRQAPGEGLEWMADIIPIFGSANYAQKFQGRLTLTADVSTSTAYMELSSLRSEDTAVYYCARTIEGAFDIWGQGTMVTVSS
VL: DIQMTQSPSSVSASVGDRVTITCRASQGIVSWLAWYQQKPGKAPRLLIYRASDLETGVPSRFSGSGSGTDFTLTISSLQPEDVATYYCQQADSFPLTFGGGTKVEIK
notes: as for B1

For the first assay, the target named is T2, M12.
T2 construct: also called PD1 mutant M12
The assay is described as follows: scFv-phage ELISA.
B1 came in with an OD490 of 3.6.
The molecule B2 showed an OD490 of 2.6.
Still for that read-out and setting: then B3, with 2.7; and B4, with 2.7.

A further assay concerns the target T3, M2-2.
T3 construct: also called PD1 mutant M2-2
The assay is described as follows: scFv-phage ELISA. For orientation: In an ELISA, binding on a coated surface is turned into a signal by an enzyme label.
As to B1, the OD490 worked out at 3.7.
B2 had an OD490 of 3.3.
B3 registered an OD490 of 3.
On the same count and under the same terms, with B4 the figure was 2.7.

For the next assay, the target named is T4, M7-2.
T4 construct: also called PD1 mutant M7-2
The assay is described as follows: scFv-phage ELISA.
Take B1: the OD490 stood at 3.7.
Still for that read-out and setting: then B2, with 1.5; and B3, with 2.7; and B4, with 2.8.

A further assay concerns the target T5, M14.
T5 construct: also called PD1 mutant M14
The assay is described as follows: scFv-phage ELISA.
On to B1, for which the OD490 was 3.7.
The same measure, in the same setting: with B2 the figure was 3.4; with B3, 3.7; with B4, 1.7.

The next assay concerns the target T6, M2.
T6 construct: also called PD1 mutant M2
The assay is described as follows: scFv-phage ELISA.
For B1, the OD490 came to 3.7.
Consider B2, for which the OD490 stood at 0.7.
B3 showed an OD490 of 0.6.
Still for that read-out and setting: with B4 the figure was 3.2.

The target of a further assay is T7, M1.
T7 construct: also called PD1 mutant M1
The assay is described as follows: scFv-phage ELISA.
Turning to B1, the OD490 amounted to 3.8.
Consider B2, for which the OD490 worked out at 3.
Same read-out and setting: with B3 the figure was 1.8; with B4, 2.4.

For the next assay, the target named is T8, M5.
T8 construct: also called PD1 mutant M5
The assay is described as follows: scFv-phage ELISA.
Regarding B1, the OD490 was found to be 3.7.
For B2, the OD490 was 1.1.
The molecule B3 had an OD490 of 1.6.
Take B4: the OD490 was determined as 2.9.

The target of the next assay is T9, M7-1.
T9 construct: also called PD1 mutant M7-1
The assay is described as follows: scFv-phage ELISA.
The molecule B1 returned an OD490 of 3.7.
On the same count and under the same terms, then B2, with 0.8; and B3, with 2.8.
The same measure, in the same setting: with B4 the figure was 3.1.

For the next assay, the target named is T10, M11.
T10 construct: also called PD1 mutant M11
The assay is described as follows: scFv-phage ELISA.
Take B1: the OD490 came to 3.8.
For B2, the OD490 is 0.8.
In turn, B3 displayed an OD490 of 1.7.
The molecule B4 registered an OD490 of 3.3.

For the next assay, the target named is T11, antigen PD1 (coated, construct not stated) (UniProt Q15116 25-170, limits assumed).
T11 construct: also called PD1 antigen; PDCD1
T11 sequence (Q15116 25-170 limits assumed): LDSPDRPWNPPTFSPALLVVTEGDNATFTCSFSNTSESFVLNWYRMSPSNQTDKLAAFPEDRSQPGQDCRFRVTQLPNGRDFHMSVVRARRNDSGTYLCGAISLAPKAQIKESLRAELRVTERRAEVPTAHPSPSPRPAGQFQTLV
The assay is described as follows: scFv-phage ELISA.
Molecule B1 yielded an OD490 of 3.8.
With B2, the OD490 came to 2.
B3 returned an OD490 of 2.8.
Regarding B4, the OD490 is 3.5.

Another assay deals with T12, M6.
T12 construct: also called PD1 mutant M6
The assay is described as follows: scFv-phage ELISA.
On to B1, for which the OD490 turned out to be 3.7.
The same measure, in the same setting: with B2 the figure was 3.3; with B3, 3.3.
Same read-out and setting: with B4 the figure was 2.9.

For a further assay, the target named is T13, M1-1.
T13 construct: also called PD1 mutant M1-1
The assay is described as follows: scFv-phage ELISA.
Molecule B1 had an OD490 of 3.6.
B2 had an OD490 of 3.
Same read-out and setting: with B3 the figure was 2.9.
For the molecule B4, the OD490 worked out at 2.6.

A further assay has as its target T14, M1-2.
T14 construct: also called PD1 mutant M1-2
The assay is described as follows: scFv-phage ELISA.
As to B1, the OD490 is 0.3.
On to B2, for which the OD490 came to 3.2.
Still for that read-out and setting: then B3, with 0.6.
Still for that read-out and setting: with B4 the figure was 2.8.

The next assay addresses T15, M8.
T15 construct: also called PD1 mutant M8
The assay is described as follows: scFv-phage ELISA.
B1 gave an OD490 of 3.5.
Regarding B2, the OD490 turned out to be 1.7.
The same measure, in the same setting: with B3 the figure was 2.1.
The same measure, in the same setting: with B4 the figure was 3.1.

The target of another assay is T16, M2-1.
T16 construct: also called PD1 mutant M2-1
The assay is described as follows: scFv-phage ELISA.
B1 came in with an OD490 of 3.6.
Same read-out and setting: then B2, with 3.5.
Regarding B3, the OD490 is 0.6.
As to B4, the OD490 came out at 2.8.

The target in another assay is T17, M5-1.
T17 construct: also called PD1 mutant M5-1
The assay is described as follows: scFv-phage ELISA.
For B1, the OD490 is 3.7.
B2 had an OD490 of 1.3.
Same read-out and setting: with B3 the figure was 1.9.
The same measure, in the same setting: with B4 the figure was 3.6.

Another assay deals with T18, M13.
T18 construct: also called PD1 mutant M13
The assay is described as follows: scFv-phage ELISA.
Molecule B1 came in with an OD490 of 3.7.
The same measure, in the same setting: with B2 the figure was 3.3.
Still for that read-out and setting: with B3 the figure was 3.7; with B4, 0.5.

For a further assay, the target named is T19, M4.
T19 construct: also called PD1 mutant M4
The assay is described as follows: scFv-phage ELISA.
Take B1: the OD490 stood at 3.6.
The same measure, in the same setting: then B2, with 2.7.
For the molecule B3, the OD490 turned out to be 1.9.
The molecule B4 came in with an OD490 of 2.4.

Another assay addresses T20, M5-2.
T20 construct: also called PD1 mutant M5-2
The assay is described as follows: scFv-phage ELISA.
In turn, B1 yielded an OD490 of 3.8.
Same read-out and setting: then B2, with 3.4; and B3, with 3.5.
Same read-out and setting: then B4, with 2.8.

Another assay has as its target T21, M3.
T21 construct: also called PD1 mutant M3
The assay is described as follows: scFv-phage ELISA.
With B1, the OD490 was found to be 3.7.
Still for that read-out and setting: with B2 the figure was 1.9.
The molecule B3 came in with an OD490 of 2.
With B4, the OD490 stood at 3.

The target in another assay is T1, ITGA6-Fc. The assay is described as follows: scFv-phage ELISA.
For the molecule B1, the OD490 came to 0.3.
As to B2, the OD490 was found to be 0.4.
Molecule B3 displayed an OD490 of 0.4.
With B4, the OD490 was found to be 0.3.

The next assay deals with T22, M10.
T22 construct: also called PD1 mutant M10
The assay is described as follows: scFv-phage ELISA.
In turn, B1 came in with an OD490 of 3.7.
For the molecule B2, the OD490 was found to be 3.
Still for that read-out and setting: then B3, with 3.1; and B4, with 2.5.

For the next assay, the target named is T23, M9.
T23 construct: also called PD1 mutant M9
The assay is described as follows: scFv-phage ELISA.
In turn, B1 showed an OD490 of 3.7.
The same measure, in the same setting: then B2, with 3.2; and B3, with 3.4.
On the same count and under the same terms, with B4 the figure was 2.4.

For a further assay, the target named is T24, M7.
T24 construct: also called PD1 mutant M7
The assay is described as follows: scFv-phage ELISA.
B1 returned an OD490 of 3.6.
B2 displayed an OD490 of 0.7.
Same read-out and setting: then B3, with 2.5; and B4, with 3.2.

The values above are taken from US20190248900A1 (Y BIOLOGICS, published 2019).
